Source: US20260265410A1 (UNIVERSITY OF FLORIDA RESEARCH FOUNDATION, published 2026)
Residue numbers refer to the chain shown, from its start.

B1: Fab_130 (Fab, V domains shown)
VH: QEQQKESGGGLFKPTDTLTLTCTVSGFSLSSNAISWVRQAPGNGLEWIGAIDNSGSAYYATWAKGRSTITRATNLNTVTLKMTSVTAADTATYFCAREDVRADSIDLNMWGPGTLVTISS
VL: SFVLTQPASVQVNLGQTVSLTCTADTLSRSYASWYQQKPGQAPVLLIYRDTSRPSGVPDRFSGSSSGNTATLTISGAQAGDEADYYCATSDGSGSSYQFVFGGGTQLTVTG
notes: Chimeric rabbit/human Fab; also called P130; clone 130
B2: Fab_240 (Fab, V domains shown)
VH: AQSLEESGGRLVTPGTPLTLTCTVSGFSLSAYAMSWVRQAPGKGLEWIGIISSYGNTYYATWAKGRFTISKTSTTVDLKITSPTTEDTATYFCARGDYGNGMSIWGPGTLVTVSS
VL: B1 VL with S30R, S52R, F99C
notes: Chimeric rabbit/human Fab; also called P240; clone 240
B3: Fab_1707 (Fab, V domains shown)
VH: AQSLEEFGGGLIKPGGTLTLTCTASGFTISSYDMSWVRQAPGSGLEWIGTMAYGGDTYHASWAKSRSTITRDTNLNTVTLKMTSLTVADTATYFCARDVGSGHYYDDMYLWGPGTLVTVSS
VL: B1 VL with L14F, S30R, S90G, Q98N, F99Y
notes: Chimeric rabbit/human Fab; also called P1707
B4: Fab_2388 (Fab, V domains shown)
VH: QEQLKESGGGLFKPTDTLTLTCTVSGFSLSNYAISLVRQPPGNGLEWIGAIDAGGVTYYASWAKSRSTITRNTNLNTVTLKMTSLTAADTATYFCAREEWSSSSGLYFSIWGPGTLVTISS
VL: B1 VL with S30R, Q98L, F99Y
notes: Chimeric rabbit/human Fab; also called P2388; clone 2388
B5: Fab_2653 (Fab, V domains shown)
VH: QEQLEESGGRLVTPGTPLTLTCTASGFSLSTYAMTWVRQAPGKGLEWIGIIDRYGYTYYANWARGRFTISKTSTTVDLKITSPTTEDTATYFCARDLPGYNVGTYFNMWGPGTLVTISS
VL: B1 VL with S30R, L46F, N68S
notes: Chimeric rabbit/human Fab; also called P2653; clone 2653
B6: Fab_2861 (Fab, V domains shown)
VH: AQSVEESGGRLVTPGTPLTLTCTVSGIDLSSYAMGWVRQAPGKGLEYIGIIVSDGRTYYTSWAKGRFTISKTSTTVDLKMTSPTTEDTATYFCAREGYGYYFDIWGPGTLVTISS
VL: B1 VL with S30R, S90A
notes: Chimeric rabbit/human Fab; also called P2861; clone 2861
B7: Fab_3208 (Fab, V domains shown)
VH: AQSVKESEGGLFKPTDTLTLTCTVSGFSLSSYAISWVRRAPGNGLEWIGAIAGYGDAYYASWAKSRSTITRNTNENTVTLKMTSLTAADTATYFCARDDYNVDTGIWGPGTLVTISS
VL: B1 VL with S30R, S90G, F99Y
notes: Chimeric rabbit/human Fab; also called P3208; clone 3208
B8: Fab_1187 (Fab, V domains shown)
VH: AQSVEESGGRLVTPGTPLTLTCTVSGIDLSSYAMSWVRQAPGKGLEWIGVIDGSGSTWYANWVKGRFTISKTTTVDLKITSPTTEDTATYFCAREDYGSETIDFNIWGPGTLVTVSS
VL: B1 VL with S30R, S52R, F99Y
notes: Chimeric rabbit/human Fab; also called P1187; mAb_1187
B9: Fab_11 (Fab, V domains shown)
VH: AQSLEESGGRLVTPGTPLTLTCTVSGFSLSSYAMTWVRQAPGEGLEWIGTIGAGGSPYYASWAKGRFTISKTATTVNLKIISPTTEDTATYFCAREGGGSYYFDLWGPGTLVTVSS
VL: B1 VL with S96T, Y97F, Q98H
notes: Chimeric rabbit/human Fab; also called P11; mAb_11
B10: Fab_17 (Fab, V domains shown)
VH: AQSLEEFGGRLATPGTPLTLTCTASGFSLGTYSMSWVRQAPGKGLEWIGTIGGRGDAYYASWAKGRFTISRTSTTVDLKMTSLATEDTATYFCVRENYGYAFDIWGPGTLVTISS
VL: B1 VL with S30R, F99C
notes: Chimeric rabbit/human Fab; also called P17; clone 17
B11: Fab_28 (Fab, V domains shown)
VH: AQSVEESGGRLVTPGIPLTLTCTVSGFSLNNYAMSWVRQAPGKGLEWIGMIDSGGAAYYATWARGRFTISRTSTTVDLKITSPTTEDTATYFCARELSSLYGAFDPWGPGTLVTVSS
VL: B1 VL with S30R, F99C
notes: Chimeric rabbit/human Fab; also called P28; clone 28

Experiments:
[1] = molecular target: T1, human Nectin-2 extracellular domain (amino acid residues 1-360 of human Nectin-2) fused to hFc (human, UniProt Q92692 32-360); experiment: ELISA, absorbance at 405 nm, one condition per Fab and antigen
T1 construct: Bought; also called hNectin-2-ECD-hFc; NECTIN2-ECD-hFc; not shown: human Fc (hFc)
T1 sequence: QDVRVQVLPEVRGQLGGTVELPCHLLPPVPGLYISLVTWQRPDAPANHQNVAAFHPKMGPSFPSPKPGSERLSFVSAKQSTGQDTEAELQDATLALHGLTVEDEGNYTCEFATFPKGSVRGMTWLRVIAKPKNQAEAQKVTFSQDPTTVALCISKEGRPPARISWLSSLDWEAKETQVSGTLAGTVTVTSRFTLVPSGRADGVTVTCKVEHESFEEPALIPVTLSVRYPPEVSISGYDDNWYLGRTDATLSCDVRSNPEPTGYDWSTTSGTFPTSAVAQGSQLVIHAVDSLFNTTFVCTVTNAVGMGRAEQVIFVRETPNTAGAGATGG

[2] = molecular target: T2, human CD105-ECD: amino acid residues Met 1-Gly 586 of human CD105 (Sino bio: Cat: 10149-H02H) (human, UniProt P17813 26-586); experiment: as above
T2 construct: Bought; also called hCD105-ECD-hFc; hCD105-hFc
T2 sequence: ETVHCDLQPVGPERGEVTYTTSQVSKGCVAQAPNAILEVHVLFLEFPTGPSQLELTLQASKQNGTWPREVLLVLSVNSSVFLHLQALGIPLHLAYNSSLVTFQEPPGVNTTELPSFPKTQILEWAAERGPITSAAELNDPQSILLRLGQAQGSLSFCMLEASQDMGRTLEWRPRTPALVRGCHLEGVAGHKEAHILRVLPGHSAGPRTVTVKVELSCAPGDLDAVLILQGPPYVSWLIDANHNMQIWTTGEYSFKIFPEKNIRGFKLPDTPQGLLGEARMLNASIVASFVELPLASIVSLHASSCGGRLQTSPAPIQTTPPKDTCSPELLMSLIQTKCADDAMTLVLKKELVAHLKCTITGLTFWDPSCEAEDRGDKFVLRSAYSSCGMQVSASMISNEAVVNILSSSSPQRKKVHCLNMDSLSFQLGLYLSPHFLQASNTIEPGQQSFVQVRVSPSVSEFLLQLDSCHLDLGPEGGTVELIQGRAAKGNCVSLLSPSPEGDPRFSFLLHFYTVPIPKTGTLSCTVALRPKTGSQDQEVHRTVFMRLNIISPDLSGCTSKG

[3] = molecular target: T3, mouse PTPRG ECD (amino acid residues 20-733 of mouse PTPRG) fused to hFc (mouse, UniProt Q05909 20-733); experiment: ELISA, one condition per Fab and antigen; y axis 0 to 1.8 without name or unit
T3 construct: Produced in-house; also called mPTPRG-ECD; Mouse PTPRG-ECD-hFc; not shown: human Fc (hFc)
T3 sequence: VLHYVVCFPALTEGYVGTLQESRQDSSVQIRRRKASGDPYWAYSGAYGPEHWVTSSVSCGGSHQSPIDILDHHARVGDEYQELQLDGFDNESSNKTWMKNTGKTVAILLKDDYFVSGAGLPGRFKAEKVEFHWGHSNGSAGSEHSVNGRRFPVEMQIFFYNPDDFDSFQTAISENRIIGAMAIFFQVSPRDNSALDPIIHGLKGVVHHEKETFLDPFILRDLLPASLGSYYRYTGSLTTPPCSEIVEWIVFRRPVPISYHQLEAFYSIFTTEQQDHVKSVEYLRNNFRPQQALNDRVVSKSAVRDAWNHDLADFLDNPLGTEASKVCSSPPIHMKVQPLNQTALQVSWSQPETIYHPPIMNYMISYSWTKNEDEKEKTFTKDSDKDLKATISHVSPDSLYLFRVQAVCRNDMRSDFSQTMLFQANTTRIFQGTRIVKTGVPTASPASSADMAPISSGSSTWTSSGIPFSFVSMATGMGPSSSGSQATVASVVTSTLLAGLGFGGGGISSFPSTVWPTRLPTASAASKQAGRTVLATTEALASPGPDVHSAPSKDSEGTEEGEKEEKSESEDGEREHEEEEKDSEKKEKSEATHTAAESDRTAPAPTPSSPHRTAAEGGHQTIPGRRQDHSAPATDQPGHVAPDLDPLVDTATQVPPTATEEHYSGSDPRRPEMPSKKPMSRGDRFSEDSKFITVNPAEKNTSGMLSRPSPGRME

[4] = molecular target: T4, C-terminal domain (CTD) of human PTPRG (amino acid residues 349~736 of human PTPRG) (human, UniProt P23470 349-736); experiment: as above
T4 construct: also called hPTPRG-CTD; human PTPRG carboxyl domain
T4 sequence: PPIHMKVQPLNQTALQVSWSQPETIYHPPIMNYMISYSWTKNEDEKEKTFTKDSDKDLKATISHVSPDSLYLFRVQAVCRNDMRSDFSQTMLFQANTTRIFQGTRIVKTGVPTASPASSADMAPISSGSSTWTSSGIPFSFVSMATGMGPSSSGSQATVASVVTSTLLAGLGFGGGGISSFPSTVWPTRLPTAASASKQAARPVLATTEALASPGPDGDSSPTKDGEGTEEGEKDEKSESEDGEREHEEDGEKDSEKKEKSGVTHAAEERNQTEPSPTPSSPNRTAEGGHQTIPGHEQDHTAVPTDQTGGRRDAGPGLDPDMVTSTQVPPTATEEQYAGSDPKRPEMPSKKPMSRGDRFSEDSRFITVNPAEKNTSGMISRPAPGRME

[5] = molecular target: T5, human PTPRG on the cell surface (U937 cells, HEL cells) (human, UniProt P23470 20-1445); experiment: flow cytometry on whole HEL cells, screen of the 28 clones (Ctrl row = 0); PTPRG is named as the antigen on HEL cells only in the later examples
T5 construct: Endogenous PTPRG of human AML cell lines
T5 sequence (P23470 20-1445): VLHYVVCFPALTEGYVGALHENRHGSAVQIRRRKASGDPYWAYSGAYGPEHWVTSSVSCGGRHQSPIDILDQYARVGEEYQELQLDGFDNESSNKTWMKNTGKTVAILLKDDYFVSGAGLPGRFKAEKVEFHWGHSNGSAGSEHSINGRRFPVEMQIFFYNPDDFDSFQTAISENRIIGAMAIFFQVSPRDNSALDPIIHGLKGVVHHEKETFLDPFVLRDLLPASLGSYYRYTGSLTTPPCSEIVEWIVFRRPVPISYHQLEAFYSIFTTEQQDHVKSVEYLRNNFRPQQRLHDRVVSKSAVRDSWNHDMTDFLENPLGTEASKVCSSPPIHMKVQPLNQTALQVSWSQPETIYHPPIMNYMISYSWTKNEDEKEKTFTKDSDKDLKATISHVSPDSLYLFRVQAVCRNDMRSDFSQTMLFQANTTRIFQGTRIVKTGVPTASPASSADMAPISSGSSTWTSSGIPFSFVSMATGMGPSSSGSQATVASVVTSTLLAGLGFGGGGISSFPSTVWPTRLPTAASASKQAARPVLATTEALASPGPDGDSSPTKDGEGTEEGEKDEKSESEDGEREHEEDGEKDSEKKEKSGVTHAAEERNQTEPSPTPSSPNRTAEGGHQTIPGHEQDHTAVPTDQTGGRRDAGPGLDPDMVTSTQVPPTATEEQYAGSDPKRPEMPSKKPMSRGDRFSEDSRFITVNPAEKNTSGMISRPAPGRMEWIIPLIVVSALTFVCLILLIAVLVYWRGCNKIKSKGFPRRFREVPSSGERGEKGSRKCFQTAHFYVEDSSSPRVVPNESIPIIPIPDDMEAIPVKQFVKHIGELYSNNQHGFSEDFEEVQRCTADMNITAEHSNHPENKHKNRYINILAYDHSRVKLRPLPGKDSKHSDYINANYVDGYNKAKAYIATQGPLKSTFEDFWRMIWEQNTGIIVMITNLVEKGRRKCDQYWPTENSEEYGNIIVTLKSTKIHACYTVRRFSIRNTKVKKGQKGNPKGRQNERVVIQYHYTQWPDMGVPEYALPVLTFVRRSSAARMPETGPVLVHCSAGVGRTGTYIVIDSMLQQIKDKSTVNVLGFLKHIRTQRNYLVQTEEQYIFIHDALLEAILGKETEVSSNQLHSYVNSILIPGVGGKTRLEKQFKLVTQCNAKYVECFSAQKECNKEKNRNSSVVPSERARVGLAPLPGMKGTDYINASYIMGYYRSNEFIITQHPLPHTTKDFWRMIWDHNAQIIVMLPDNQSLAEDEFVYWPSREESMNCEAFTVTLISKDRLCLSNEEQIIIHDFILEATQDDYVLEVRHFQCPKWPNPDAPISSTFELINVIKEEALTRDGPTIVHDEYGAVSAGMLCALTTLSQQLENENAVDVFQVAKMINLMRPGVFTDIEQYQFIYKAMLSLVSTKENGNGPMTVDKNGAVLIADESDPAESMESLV

[6] = molecular target: T5, human PTPRG on the cell surface (U937 …); experiment: flow cytometry on whole U937 cells, screen of the 28 clones (Ctrl row = 0); PTPRG is named as the antigen on U937 cells only in the later examples

Row | Binder | binding result [1] | binding result [2] | binding result [3] | binding result [4] | flow cytometry binding value (the table prints no name or unit) [5] | flow cytometry binding value (the table prints no name or unit) [6]
1 | B1 | no binding | no binding | binds | no binding | 12.6 | 78.3
2 | B2 | – | – | binds | no binding | 17.5 | 92.7
3 | B3 | – | – | binds | no binding | 16.9 | 92
4 | B4 | – | – | – | – | 15 | 90.9
5 | B5 | – | – | binds | no binding | 13.6 | 91.4
6 | B6 | – | – | binds | no binding | 14.5 | 85
7 | B7 | – | – | binds | no binding | 17.1 | 92.7
8 | B8 | – | – | – | – | 10.7 | 29.3
9 | B9 | no binding | no binding | – | no binding | -2.13 | 92.9
10 | B10 | – | – | binds | no binding | 15.8 | 87.5
11 | B11 | – | – | binds | no binding | 15.8 | 87.5
